Where a chain is given by its changes, count along the chain named.
Columns and labels:
Experiment in all cases: SPR, vs GpH7-A5/GpH7-B3/GpL16-k0 =100
[1] = target: T1, FcγRIa extracellular domain, His-tagged (human, UniProt P12314 16-292)
T1 construct: extracellular domain; also called 1a

[2] = target: T2, FcγRIIa(H) extracellular domain, His-tagged (human, UniProt P12318 34-217)
T2 construct: extracellular domain; also called 2aH
T2 sequence: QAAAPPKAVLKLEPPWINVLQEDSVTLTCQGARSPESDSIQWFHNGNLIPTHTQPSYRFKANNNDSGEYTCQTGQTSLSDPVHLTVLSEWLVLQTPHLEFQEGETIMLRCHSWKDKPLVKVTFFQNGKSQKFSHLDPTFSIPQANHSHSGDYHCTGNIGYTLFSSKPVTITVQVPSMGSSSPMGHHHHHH

[3] = target: T3, FcγRIIb extracellular domain, His-tagged (human, UniProt P31994 43-217)
T3 construct: extracellular domain; also called 2b
T3 sequence: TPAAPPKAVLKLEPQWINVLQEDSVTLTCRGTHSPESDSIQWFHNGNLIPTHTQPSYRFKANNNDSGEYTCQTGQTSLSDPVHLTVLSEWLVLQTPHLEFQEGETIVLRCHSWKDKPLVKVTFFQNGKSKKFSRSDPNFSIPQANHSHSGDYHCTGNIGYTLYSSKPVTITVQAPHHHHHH

[4] = target: T4, FcγRIIa(R) extracellular domain, His-tagged (human, UniProt P12318 34-217)
T4 construct: extracellular domain; also called 2aR
T4 sequence: T2 sequence with H134R

[5] = target: T5, FcγRIIIa extracellular domain, His-tagged (human, UniProt P08637 17-208)
T5 construct: extracellular domain; also called 3a
T5 sequence (P08637 other isoform, or with tags, fused parts or gaps): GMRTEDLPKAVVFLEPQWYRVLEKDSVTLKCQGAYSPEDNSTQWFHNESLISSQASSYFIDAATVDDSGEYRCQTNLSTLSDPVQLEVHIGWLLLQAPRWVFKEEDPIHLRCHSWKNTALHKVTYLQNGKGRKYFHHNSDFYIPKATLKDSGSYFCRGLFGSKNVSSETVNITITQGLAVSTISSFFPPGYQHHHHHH

T1 sequence (P12314 other isoform, or with tags, fused parts or gaps): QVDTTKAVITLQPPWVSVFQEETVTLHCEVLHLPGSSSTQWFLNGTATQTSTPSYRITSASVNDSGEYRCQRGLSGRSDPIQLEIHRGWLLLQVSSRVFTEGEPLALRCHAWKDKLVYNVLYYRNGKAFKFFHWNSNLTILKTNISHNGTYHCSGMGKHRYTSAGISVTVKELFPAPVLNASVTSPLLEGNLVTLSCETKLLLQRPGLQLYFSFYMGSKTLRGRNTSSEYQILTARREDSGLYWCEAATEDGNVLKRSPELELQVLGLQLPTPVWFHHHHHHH

B1: GpH7-A5/GpH7-B3 variant L234_07I/GpL16-k0 (antibody, human IgG1, kappa)
heavy 1: not shown
heavy 2: not shown
light: DIVMTQSPLSLPVTPGEPASISCQASESLVHSNRNTYLHWYLQKPGQSPQLLIYKVSNRFSGVPDRFSGSGSGTDFTLKISRVEAEDVGVYYCSQNTHVPPTFGQGTKVEIERTVAAPSVFIFPPSDEQLKSGTASVVCLLNNFYPREAKVQWKVDNALQSGNSQESVTEQDSKDSTYSLSSTLTLSKADYEKHKVYACEVTHQGLSSPVTKSFNRGEC
- He/Con 1a [1]: 106 % of control
- He/Con 2aH [2]: 101 % of control
- He/Con 2b [3]: 92.3 % of control
- He/Con 2aR [4]: 110 % of control
- He/Con 3a [5]: 99.5 % of control

B2: GpH7-A5/GpH7-B3 variant L235_13S/GpL16-k0 (antibody, human IgG1, kappa)
heavy 1: not shown
heavy 2: not shown
light: B1 light
- He/Con 1a [1]: 93.5 % of control
- He/Con 2aH [2]: 73.5 % of control
- He/Con 2b [3]: 55 % of control
- He/Con 2aR [4]: 75.9 % of control
- He/Con 3a [5]: 67.2 % of control

B3: GpH7-A5/GpH7-B3 variant L234_15Y/GpL16-k0 (antibody, human IgG1, kappa)
heavy 1: not shown
heavy 2: not shown
light: B1 light
- He/Con 1a [1]: 103 % of control
- He/Con 2aH [2]: 134 % of control
- He/Con 2b [3]: 110 % of control
- He/Con 2aR [4]: 113 % of control
- He/Con 3a [5]: 126 % of control

B4: GpH7-A5/GpH7-B3 variant L235_16H/GpL16-k0 (antibody, human IgG1, kappa)
heavy 1: not shown
heavy 2: not shown
light: B1 light
- He/Con 1a [1]: 92.7 % of control
- He/Con 2aH [2]: 99.8 % of control
- He/Con 2b [3]: 87.8 % of control
- He/Con 2aR [4]: 110 % of control
- He/Con 3a [5]: 57.1 % of control

B5: GpH7-A5/GpH7-B3 variant L235_15Y/GpL16-k0 (antibody, human IgG1, kappa)
heavy 1: not shown
heavy 2: not shown
light: B1 light
- He/Con 1a [1]: 100 % of control
- He/Con 2aH [2]: 135 % of control
- He/Con 2b [3]: 170 % of control
- He/Con 2aR [4]: 150 % of control
- He/Con 3a [5]: 77.8 % of control

B6: GpH7-A5/GpH7-B3 variant L235_02A/GpL16-k0 (antibody, human IgG1, kappa)
heavy 1: not shown
heavy 2: not shown
light: B1 light
- He/Con 1a [1]: 95.2 % of control
- He/Con 2aH [2]: 77.6 % of control
- He/Con 2b [3]: 72 % of control
- He/Con 2aR [4]: 86.6 % of control
- He/Con 3a [5]: 72 % of control

B7: GpH7-A5/GpH7-B3 variant L235_06M/GpL16-k0 (antibody, human IgG1, kappa)
heavy 1: not shown
heavy 2: not shown
light: B1 light
- He/Con 1a [1]: 101 % of control
- He/Con 2aH [2]: 96.3 % of control
- He/Con 2b [3]: 92.4 % of control
- He/Con 2aR [4]: 106 % of control
- He/Con 3a [5]: 75.6 % of control

B8: GpH7-A5/GpH7-B3 variant L235_03V/GpL16-k0 (antibody, human IgG1, kappa)
heavy 1: not shown
heavy 2: not shown
light: B1 light
- He/Con 1a [1]: 97.8 % of control
- He/Con 2aH [2]: 94.9 % of control
- He/Con 2b [3]: 75.8 % of control
- He/Con 2aR [4]: 83.4 % of control
- He/Con 3a [5]: 94.6 % of control

B9: GpH7-A5/GpH7-B3 variant L235_05P/GpL16-k0 (antibody, human IgG1, kappa)
heavy 1: not shown
heavy 2: not shown
light: B1 light
- He/Con 1a [1]: 97.8 % of control
- He/Con 2aH [2]: 64.2 % of control
- He/Con 2b [3]: 62.4 % of control
- He/Con 2aR [4]: 74.6 % of control
- He/Con 3a [5]: 68.6 % of control

B10: GpH7-A5/GpH7-B3 variant L235_09D/GpL16-k0 (antibody, human IgG1, kappa)
heavy 1: not shown
heavy 2: not shown
light: B1 light
- He/Con 1a [1]: 87.6 % of control
- He/Con 2aH [2]: 84.3 % of control
- He/Con 2b [3]: 121 % of control
- He/Con 2aR [4]: 117 % of control
- He/Con 3a [5]: 88.5 % of control

B11: GpH7-A5/GpH7-B3 variant L234_19Q/GpL16-k0 (antibody, human IgG1, kappa)
heavy 1: not shown
heavy 2: not shown
light: B1 light
- He/Con 1a [1]: 98.8 % of control
- He/Con 2aH [2]: 88.1 % of control
- He/Con 2b [3]: 68.9 % of control
- He/Con 2aR [4]: 87.2 % of control
- He/Con 3a [5]: 77.1 % of control

B12: GpH7-A5/GpH7-B3 variant L235_18N/GpL16-k0 (antibody, human IgG1, kappa)
heavy 1: not shown
heavy 2: not shown
light: B1 light
- He/Con 1a [1]: 95.2 % of control
- He/Con 2aH [2]: 73.5 % of control
- He/Con 2b [3]: 62.7 % of control
- He/Con 2aR [4]: 77.3 % of control
- He/Con 3a [5]: 65 % of control

B13: GpH7-A5/GpH7-B3 variant L235_20W/GpL16-k0 (antibody, human IgG1, kappa)
heavy 1: not shown
heavy 2: not shown
light: B1 light
- He/Con 1a [1]: 95.9 % of control
- He/Con 2aH [2]: 131 % of control
- He/Con 2b [3]: 168 % of control
- He/Con 2aR [4]: 152 % of control
- He/Con 3a [5]: 73.8 % of control

B14: GpH7-A5/GpH7-B3 variant P238_08L/GpL16-k0 (antibody, human IgG1, kappa)
heavy 1: not shown
heavy 2: not shown
light: B1 light
- He/Con 1a [1]: 104 % of control
- He/Con 2aH [2]: 81.8 % of control
- He/Con 2b [3]: 207 % of control
- He/Con 2aR [4]: 132 % of control
- He/Con 3a [5]: 71.3 % of control

B15: GpH7-A5/GpH7-B3 variant L234_13S/GpL16-k0 (antibody, human IgG1, kappa)
heavy 1: not shown
heavy 2: not shown
light: B1 light
- He/Con 1a [1]: 100 % of control
- He/Con 2aH [2]: 89.4 % of control
- He/Con 2b [3]: 67.7 % of control
- He/Con 2aR [4]: 82.6 % of control
- He/Con 3a [5]: 68.1 % of control

B16: GpH7-A5/GpH7-B3 variant L234_18N/GpL16-k0 (antibody, human IgG1, kappa)
heavy 1: not shown
heavy 2: not shown
light: B1 light
- He/Con 1a [1]: 97.3 % of control
- He/Con 2aH [2]: 100 % of control
- He/Con 2b [3]: 92 % of control
- He/Con 2aR [4]: 98 % of control
- He/Con 3a [5]: 88.2 % of control

B17: GpH7-A5/GpH7-B3 variant L234_09D/GpL16-k0 (antibody, human IgG1, kappa)
heavy 1: not shown
heavy 2: not shown
light: B1 light
- He/Con 1a [1]: 101 % of control
- He/Con 2aH [2]: 100 % of control
- He/Con 2b [3]: 172 % of control
- He/Con 2aR [4]: 142 % of control
- He/Con 3a [5]: 113 % of control

B18: GpH7-A5/GpH7-B3 variant L235_14T/GpL16-k0 (antibody, human IgG1, kappa)
heavy 1: not shown
heavy 2: not shown
light: B1 light
- He/Con 1a [1]: 91.6 % of control
- He/Con 2aH [2]: 79.5 % of control
- He/Con 2b [3]: 53.4 % of control
- He/Con 2aR [4]: 70.6 % of control
- He/Con 3a [5]: 73.2 % of control

B19: GpH7-A5/GpH7-B3 variant L235_10E/GpL16-k0 (antibody, human IgG1, kappa)
heavy 1: not shown
heavy 2: not shown
light: B1 light
- He/Con 1a [1]: 96.9 % of control
- He/Con 2aH [2]: 80 % of control
- He/Con 2b [3]: 90.8 % of control
- He/Con 2aR [4]: 98.7 % of control
- He/Con 3a [5]: 85.6 % of control

B20: GpH7-A5/GpH7-B3 variant L235_07I/GpL16-k0 (antibody, human IgG1, kappa)
heavy 1: not shown
heavy 2: not shown
light: B1 light
- He/Con 1a [1]: 103 % of control
- He/Con 2aH [2]: 99.5 % of control
- He/Con 2b [3]: 100 % of control
- He/Con 2aR [4]: 102 % of control
- He/Con 3a [5]: 92.8 % of control

B21: GpH7-A5/GpH7-B3 variant L235_04F/GpL16-k0 (antibody, human IgG1, kappa)
heavy 1: not shown
heavy 2: not shown
light: B1 light
- He/Con 1a [1]: 100 % of control
- He/Con 2aH [2]: 123 % of control
- He/Con 2b [3]: 135 % of control
- He/Con 2aR [4]: 132 % of control
- He/Con 3a [5]: 76.4 % of control

B22: GpH7-A5/GpH7-B3 variant L234_10E/GpL16-k0 (antibody, human IgG1, kappa)
heavy 1: not shown
heavy 2: not shown
light: B1 light
- He/Con 1a [1]: 104 % of control
- He/Con 2aH [2]: 98.2 % of control
- He/Con 2b [3]: 134 % of control
- He/Con 2aR [4]: 130 % of control
- He/Con 3a [5]: 111 % of control

B23: GpH7-A5/GpH7-B3 variant L234_16H/GpL16-k0 (antibody, human IgG1, kappa)
heavy 1: not shown
heavy 2: not shown
light: B1 light
- He/Con 1a [1]: 97 % of control
- He/Con 2aH [2]: 97.1 % of control
- He/Con 2b [3]: 67.8 % of control
- He/Con 2aR [4]: 83.5 % of control
- He/Con 3a [5]: 76.8 % of control

B24: GpH7-A5/GpH7-B3 variant L234_14T/GpL16-k0 (antibody, human IgG1, kappa)
heavy 1: not shown
heavy 2: not shown
light: B1 light
- He/Con 1a [1]: 102 % of control
- He/Con 2aH [2]: 86.8 % of control
- He/Con 2b [3]: 71.4 % of control
- He/Con 2aR [4]: 90 % of control
- He/Con 3a [5]: 69.8 % of control

B25: GpH7-A5/GpH7-B3 variant L234_20W/GpL16-k0 (antibody, human IgG1, kappa)
heavy 1: not shown
heavy 2: not shown
light: B1 light
- He/Con 1a [1]: 102 % of control
- He/Con 2aH [2]: 126 % of control
- He/Con 2b [3]: 131 % of control
- He/Con 2aR [4]: 125 % of control
- He/Con 3a [5]: 103 % of control

Reference: US20260167699A1 (Chugai, published 2026)
